Experiment [1] addresses T1, human CD40-Fc protein (amino acid residue 21-193 of SEQ ID NO: 67 linked to N-terminus of amino acid residue … (human, biotin-labeled in the capture ELISA and in the benchmark blocking ELISA; unlabeled when coated in the ligand blocking ELISA).
T1 construct: also called biotin-labeled human CD40-Fc; human CD40-Fc-biotin
In words: capture ELISA, biotin human CD40-Fc; mAb at 2000 ng/mL. The protocol:
(§1) Plates were washed 4 times with wash buffer (PBS+0.05% Tween-20, PBST) and then blocked with 200 μl/well blocking buffer (5% w/v non-fatty milk in PBST) for 2 hours at 37° C. […] After a final wash, plates were incubated with 100 μl/well ELISA substrate TMB (Innoreagents, Cat # TMB-S-002). The reaction was stopped in 15 minutes at 25° C. with 50 μl/well 1M H₂SO₄, and the absorbance was read at 450 nm and plotted against antibody concentration. Data were analyzed using Graphpad Prism software and EC₅₀ values were reported.
For orientation: In an ELISA, binding on a coated surface is turned into a signal by an enzyme label.

Experiment [2] has as its target T2, cynomolgus monkey CD40-his protein (Acro biosystems, Cat # CD0-052H6) (cynomolgus monkey, UniProt G7PG38 21-193).
T2 construct: Bought reagent; also called Cynomolgus CD40-his
In words: SPR, Biacore; cynomolgus CD40-his. The source says: (§2) Briefly, goat anti-mouse IgG (GE healthcare, Cat # BR100838, Mouse Antibody Capture Kit) was covalently linked to a CM5 or a Protein G chip (carboxy methyl dextran coated chip) via primary amines, using a standard amine coupling kit provided by Biacore (GE healthcare, Pittsburgh, Pa., USA). Un-reacted moieties on the biosensor surface were blocked with ethanolamine. […] Then, human CD40-his (Acro biosystems, Cat # CD0-H5228) or cynomolgus monkey CD40-his protein (Acro biosystems, Cat # CD0-052H6) in HBS EP buffer (provided by Biacore) was flowed onto the chip at a flow rate of 30 μL/min. The antigen-antibody association kinetics was followed for 2 minutes and the dissociation kinetics was followed for 10 minutes. The association and dissociation curves were fit to a 1:1 Langmuir binding model using BIA evaluation software.
(In SPR one partner is held on a chip, and binding of the other changes the refractive index at the surface.)

Experiment [3] addresses T1, human CD40-Fc protein (amino acid …). In words: capture ELISA; antibody captured, biotin-labeled human CD40-Fc in solution. How it is done:
as §1
(§3) In the capture ELISA test, a mouse control antibody targeting a protein other than CD40 was used.

Experiment [4] addresses T3, Human CD40-his protein (Acro biosystems, Cat # CD0-H5228) (human, UniProt P25942 21-193).
T3 construct: Bought reagent; not shown: his tag
In words: SPR, Biacore; human CD40-his.
Description: as §2

Experiment [5] concerns the target T4, full length human CD40 (uniprot # P25942-1) on the membrane of 293T-CD40 cells (human, UniProt P25942 21-277).
T4 construct: also called cell surface CD40
In words: flow cytometry on 293T-CD40 cells, PE-labeled secondary antibody, MFI. The protocol:
2×10⁵ cells per well in 96 well-plates were incubated with the mouse anti-CD40 antibodies or the controls of various concentrations in FACS buffer for 40 minutes on ice. […] Following an incubation of 40 minutes at 4° C. in dark, cells were washed three times and resuspended in FACS buffer. Fluorescence was measured using a Becton Dickinson FACS Canto II-HTS equipment and plotted against antibody concentration.
On the technique in general: In flow cytometry, cells or beads pass a laser one at a time.

Experiment [6] addresses T1, human CD40-Fc protein (amino acid …). In words: capture ELISA, biotin human CD40-Fc; mAb at 80 ng/mL. The protocol: as §1
The target is the same in experiment [7]. In words: benchmark blocking ELISA: BM2 (Selicrelumab) coated as competitor, antibody titrated in biotin-labeled human CD40-Fc solution, streptavidin-HRP, OD(450-630). The protocol: (§4) The ability of the mouse anti-CD40 antibodies of the present invention to block the binding of the Benchmark to human CD40 was measured using a competitive ELISA assay. […] The next day, plates were washed with wash buffer, and blocked with 5% w/v non-fatty milk in PBST for 2 hours at 37° C. Plates were then washed again using wash buffer. […] After incubation at 37° C. for 40 minutes, plates were washed 4 times using wash buffer. Then streptavidin conjugated HRP was added and incubated for 40 minutes at 37° C. to detect biotin-labeled human CD40-Fc bound to plates. Plates were washed again using wash buffer. Finally, TMB was added and the reaction was stopped using 1M H₂SO₄, and the absorbance was read at 450 nm. Data were analyzed using Graphpad Prism software and IC₅₀ values were reported.

In experiment [8] the target is T2, cynomolgus monkey CD40-his protein …. In words: SPR, Biacore T200; antibody captured, antigen flowed; 1:1 Langmuir fit.
Description: as §2

In experiment [9] the target is T3, Human CD40-his protein (Acro …). The description is as above.
Description: as §2

Experiment [10] addresses T1, human CD40-Fc protein (amino acid …). In words: capture ELISA, biotin human CD40-Fc; mAb at 0 ng/mL (blank). The protocol:
as §1

Experiment [11] has the same target. In words: capture ELISA, biotin human CD40-Fc; mAb at 400 ng/mL. The protocol:
as §1

Experiment [12] has the same target. In words: competitive ELISA; biotin human CD40-Fc in solution, competitor coated BM2. The protocol: as §4, §3

By Kd is commonly meant the constant that tells how readily two partners part at equilibrium. Usually EC50 stands for the concentration at which the effect is half-maximal. The term EC50 (read off the curve) denotes the midpoint of the concentration-response curve. As usually defined, the koff is a measure of how fast the partners let go of each other. What is called kon is a measure of how fast the partners come together. As usually defined, the IC50 is the concentration that gives 50% inhibition.

B1: mouse anti-CD40 monoclonal antibody C1C1 (antibody, V domains shown)
VH: EVKLVESGGGLVKPGASLKLSCAASGFTFSNYGMSWVRQNSDKRLEWVASISSGGDDTYYPDNVKGRCTISRENAKNTLYLEMSSLKTEDTALYYCTRAGGKAMDYWGQGTSVTVST
VL: DIVLTQSPATLSVIPGNSVSLSCRASQSIRDNLHWYQQKSHESPRLLINYASQSISGIPSRFSGSGSGTDFTLTINSVETEDFGIYFCQQFNSWPLTFGGGTKLELK
notes: those are used here for the chimeric antibody only; also called Mouse C1C1; mouse C1C1
B1: the “absorbance at 450 nm” value in [1] was 1.75 OD450; in experiment [6] it was 1.48 OD450; in experiment [10], 0.124 OD450; in experiment [11], 1.69 OD450. For the same molecule, the Kd was determined as 2350 pM in [2], 3620 pM in experiment [4], 486 pM in [8] and 217 pM in [9]. In addition, in experiment [3], it took 192 pM to reach a half-maximal effect (EC50). In addition, in experiment [5], the 50% effective concentration (EC50 (read off the curve)) is about 0.3 µg/mL. Also, in experiment [7], the “IC50 (read off the curve)” value was about 500 pM. Besides, the figures for the koff in [8] and in [9] were 0.00119 s⁻¹ and 0.000542 s⁻¹, respectively. Moreover, the kon in experiment [8] worked out at 2.45e+06 M⁻¹ s⁻¹; in experiment [9], 2.49e+06 M⁻¹ s⁻¹. This molecule registered an IC50 in experiment [12] of 461 pM.

B2: chimeric antibody C1C1 (antibody, human IgG1, kappa, V domains shown)
VH: EVKLVESGGGLVKPGASLKLSCAASGFTFSNYGMSWVRQNSDKRLEWVASISSGGDDTYYPDNVKGRCTISRENAKNTLYLEMSSLKTEDTALYYCTRAGGKAMDYWGQGTSVTVST
VL: DIVLTQSPATLSVIPGNSVSLSCRASQSIRDNLHWYQQKSHESPRLLINYASQSISGIPSRFSGSGSGTDFTLTINSVETEDFGIYFCQQFNSWPLTFGGGTKLELKR
notes: also called chC1C1; chimeric C1C1
For B2, the “absorbance at 450 nm” value in experiment [1] was found to be 1.83 OD450; in experiment [6] it was 1.17 OD450; in [10], 0.028 OD450; in experiment [11], 1.79 OD450. In addition, the Kd in experiment [2] amounted to 2340 pM; in experiment [4] it was 5980 pM. In experiment [3], a half-maximal effect (EC50) was put at 240 pM. Further, in experiment [5], the “EC50 (read off the curve)” value is about 0.3 µg/mL. Also, the “IC50 (read off the curve)” value in experiment [7] is about 0.02 µg/mL. In [12], this molecule registered an IC50 of 130 pM.

Values taken from patent publication US20200332017A1 (SALUBRIS CHENGDU BIOTECH, published 2020).
